Test results published in patent US20150086555A1.

Legend:
Details in all cases: remark: other sources report otherwise
[1] = target: recombinant soluble homotrimeric HA of A/Anhui/1/05 (H5N1) (Influenza A virus A/Anhui/1/2005(H5N1)); assay: HA microarray, BCC supernatant
[2] = target: recombinant soluble homotrimeric HA of A/California/4/09 (H1N1) (Influenza A virus A/California/04/2009(H1N1)); assay: HA microarray, BCC supernatant
[3] = target: recombinant soluble homotrimeric HA of A/Hong Kong/2108/03 (H9N2) (Influenza A virus A/HK/2108/2003(H9N2)); assay: HA microarray, BCC supernatant
[4] = target: recombinant soluble homotrimeric HA of A/Indonesia/5/05 (H5N1) (Influenza A virus A/Indonesia/5/2005(H5N1)); assay: HA microarray, BCC supernatant
[5] = target: recombinant soluble homotrimeric HA of A/Japan/305/57 (H2N2) (Influenza A virus A/Japan/305/1957(H2N2)); assay: HA microarray, BCC supernatant
[6] = target: recombinant soluble homotrimeric HA of A/Netherlands/219/03 (H7N7) (Influenza A virus A/Netherlands/219/03(H7N7)); assay: HA microarray, BCC supernatant
[7] = target: recombinant soluble homotrimeric HA of A/Solomon Islands/3/06 (H1N1) (Influenza A virus A/Solomon Islands/3/2006(H1N1)); assay: HA microarray, BCC supernatant
[8] = target: recombinant soluble homotrimeric HA of A/Vietnam/1203/04 (H5N1) (Influenza A virus A/VietNam/1203/2004(H5N1)); assay: HA microarray, BCC supernatant
[9] = target: recombinant soluble homotrimeric HA of A/Wisconsin/67/05 (H3N2) (Influenza A virus A/Wisconsin/67/2005(H3N2)); assay: HA microarray, BCC supernatant
[10] = target: recombinant soluble homotrimeric HA of A/chicken/Vietnam/NCVD-016/08 (H5N1) (Influenza A virus A/chicken/Vietnam/NCVD-016/2008(H5N1)); assay: HA microarray, BCC supernatant
[11] = target: recombinant soluble homotrimeric HA of A/duck/Yangzhou/02/05 (H8N4) (Influenza A virus A/duck/Yangzhou/02/2005(H8N4)); assay: HA microarray, BCC supernatant
[12] = target: recombinant soluble homotrimeric HA of A/northern shoveler/California/HKWF115/07 (H6) (Influenza A virus A/northern shoveler/California/HKWF115/2007(H6N1)); assay: HA microarray, BCC supernatant
[13] = target: recombinant homotrimeric HA A/Anhui/1/05 H5N1 (Influenza A virus A/Anhui/1/2005(H5N1)); assay: protein microarray, purified IgG, trimeric HA
[14] = target: recombinant homotrimeric HA A/California/4/09 H1N1 (Influenza A virus A/California/04/2009(H1N1)); assay: protein microarray, purified IgG, trimeric HA
[15] = target: recombinant homotrimeric HA A/Egypt/3300-NAMRU3/08 H5N1 (Influenza A virus A/Egypt/3300-NAMRU3/2008(H5N1)); assay: protein microarray, purified IgG, trimeric HA
[16] = target: recombinant homotrimeric HA A/Hong Kong/1073/99 H9N2 (Influenza A virus A/Hong Kong/1073/99 (H9N2)); assay: protein microarray, purified IgG, trimeric HA
[17] = target: recombinant homotrimeric HA A/Hong Kong/156/97 H5N1 (Influenza A virus A/Hong Kong/156/97 (H5N1)); assay: protein microarray, purified IgG, trimeric HA
[18] = target: recombinant homotrimeric HA A/Hong Kong/2108/03 H9N2 (Influenza A virus A/HK/2108/2003(H9N2)); assay: protein microarray, purified IgG, trimeric HA
[19] = target: recombinant homotrimeric HA A/Indonesia/5/05 H5N1 (Influenza A virus A/Indonesia/5/2005(H5N1)); assay: protein microarray, purified IgG, trimeric HA
[20] = target: recombinant homotrimeric HA A/Japan/305/57 H2N2 (Influenza A virus A/Japan/305/1957(H2N2)); assay: protein microarray, purified IgG, trimeric HA
[21] = target: recombinant homotrimeric HA A/Netherlands/219/03 H7N7 (Influenza A virus A/Netherlands/219/03(H7N7)); assay: protein microarray, purified IgG, trimeric HA
[22] = target: recombinant homotrimeric HA A/Solomon Islands/3/06 H1N1 (Influenza A virus A/Solomon Islands/3/2006(H1N1)); assay: protein microarray, purified IgG, trimeric HA
[23] = target: recombinant homotrimeric HA A/South Carolina/1/18 H1N1 (Influenza A virus A/South Carolina/1/18 (H1N1)); assay: protein microarray, purified IgG, trimeric HA
[24] = target: recombinant homotrimeric HA A/Vietnam/1203/04 H5N1 (Influenza A virus A/VietNam/1203/2004(H5N1)); assay: protein microarray, purified IgG, trimeric HA
[25] = target: recombinant homotrimeric HA A/chicken/Vietnam/NCVD-016/08 H5N1 (Influenza A virus A/chicken/Vietnam/NCVD-016/2008(H5N1)); assay: protein microarray, purified IgG, trimeric HA
[26] = target: recombinant homotrimeric HA A/northern shoveler/California/HKWF115/07 H6N4 (Influenza A virus A/northern shoveler/California/HKWF115/2007(H6N1)); assay: protein microarray, purified IgG, trimeric HA
[27] = target: recombinant homotrimeric HA A/Wisconsin/67/05 H3N2 (Influenza A virus A/Wisconsin/67/2005(H3N2)); assay: protein microarray, purified IgG, trimeric HA

Binder	Trimeric HA Binding: RLU [1]	Trimeric HA Binding: RLU [2]	Trimeric HA Binding: RLU [3]	Trimeric HA Binding: RLU [4]	Trimeric HA Binding: RLU [5]	Trimeric HA Binding: RLU [6]	Trimeric HA Binding: RLU [7]	Trimeric HA Binding: RLU [8]	Trimeric HA Binding: RLU [9]	Trimeric HA Binding: RLU [11]	Trimeric HA Binding: RLU [13]	Trimeric HA Binding: RLU [14]	Trimeric HA Binding: RLU [15]	Trimeric HA Binding: RLU [16]	Trimeric HA Binding: RLU [17]	Trimeric HA Binding: RLU [19]	Trimeric HA Binding: RLU [20]	Trimeric HA Binding: RLU [23]	Trimeric HA Binding: RLU [24]	Trimeric HA Binding: RLU [25]	further results
TCN-534 (5249_B02) (antibody, V domains shown) VH: QVQLVQSGAEVKKPGSSVKVSCRESGGTFNGYTITWVRQAPGQGLEWMGGIIPMMGTVNYAQKLQGRVTITTDYFTKTAYMDLNNLRSEDTAMYYCVKIRYTGQQLLWGQGTLVTVSS VL: DIQMTQSPSTLSASIGDRVTITCRASQSIASWLAWYQQKPGKAPKLLIYEAVNLESGVPSRFSGSGSGTDFTLTISSLQPDDFATYFCQHYGTISQTFGGGTKVEIK	6860 RLU	30100 RLU	165 RLU	46400 RLU	50600 RLU	4340 RLU	44200 RLU	3440 RLU	7980 RLU	46500 RLU	1900 RLU	20700 RLU	18200 RLU	918 RLU	13200 RLU	19500 RLU	29100 RLU	9240 RLU	25900 RLU	5170 RLU	Trimeric HA Binding: RLU [10]: 56600 RLU; Trimeric HA Binding: RLU [12]: 52400 RLU; Trimeric HA Binding: RLU [18]: 172 RLU; Trimeric HA Binding: RLU [21]: 3420 RLU; Trimeric HA Binding: RLU [22]: 11400 RLU; Trimeric HA Binding: RLU [26]: 21700 RLU
TCN-522 (3212_I12) (antibody, V domains shown) VH: QVQLQQWGAGLLKPSETLSLTCTVSGGSLTDYSWNWIRQPPGKGLEWIGDTLHNGYTNYNPSLRGRVSISIDTSKNQVSLRLTSVTAADTALYYCARGSGGYGGFDYFGKLRTWDFWGQGTLVTVSS VL: DIQLTQSPSSLSASVGDRVTITCRASQGIRNDLGWYQQKPGNAPKRLIFGASSLQSGVPSRFSGSGSGTEFTLTISSLQPEDFATYYCLQHNSYPYTFGQGTKLEIK		5020 RLU	639 RLU	67 RLU	989 RLU		38900 RLU	145 RLU		502 RLU	5260 RLU	13900 RLU	11300 RLU	5050 RLU	14800 RLU	12500 RLU	9740 RLU	4500 RLU	11300 RLU	1960 RLU	Trimeric HA Binding: RLU [22]: 19100 RLU; Trimeric HA Binding: RLU [27]: 108 RLU; Trimeric HA Binding: RLU [26]: 3180 RLU
TCN-546 (5089_L08) (antibody, V domains shown) VH: QVQLQQWGAGLLKPSETLSLTCGVYGGSLSDYYWSWIRQPPGKGLEWIGEINHSGGTNYNPSLKRRVTISVDTSKKQFSLKMNSVTAADTAVYYCARGTDPDTEVYCRAGNCAAFDFWGQGTLVTVSS VL: EIVLTQSPGTLSLSPGERATLSCRASHFVIGRAVAWYQQKPGQAPRLLIYGASSRATGIPDRFSGSGSGTDFTLTISRLETEDFAVFYCQHYGSSPRYAFGQGTKLEIK	2040 RLU	350 RLU	13000 RLU	18400 RLU	520 RLU	1450 RLU		349 RLU	30200 RLU	487 RLU	21400 RLU	277 RLU	11200 RLU	505 RLU	890 RLU	147 RLU	503 RLU	88 RLU	1200 RLU	207 RLU	Trimeric HA Binding: RLU [10]: 421 RLU; Trimeric HA Binding: RLU [18]: 307 RLU; Trimeric HA Binding: RLU [21]: 386 RLU; Trimeric HA Binding: RLU [27]: 25500 RLU
